Laboratory results: article PMC12564524, “AlphaFold-Guided Semi-Rational Engineering of an (R)-Amine Transaminase for Green Synthesis of Chiral Amines” (Biomolecules, 2025)

Legend:
[1] = tested on: T1, CC(=O)CCc1ccccc1; test: HPLC quantification of (R)-1-methyl-3-phenylpropylamine, Michaelis-Menten fit; format: biochemical, Mycolicibacterium wolinskyi; conditions: pH 7.0, 40 °C, 30 min, 10 μg/mL enzyme, ketone 0-200 mM, standard assay has 20 mM (R)-2-aminoheptane, 2 mM PLP, 100 mM triethanolamine
T1 construct: N-terminal 6xHis tag, pET-15b, codon-optimised synthetic gene, E. coli BL21(DE3), Ni-NTA purified; about 48 kDa; PLP-dependent fold type IV
From the text: (§1) HPLC quantification of (R)-1-methyl-3-phenylpropylamine, Michaelis-Menten fit on MwoAT

[2] = substrate: CC(=O)CCc1ccccc1; test: as above; format: biochemical, Mycolicibacterium wolinskyi; conditions: pH 7.0, 40 °C, 30 min, 10 μg/mL enzyme, ketone 0-200 mM, standard assay has 20 mM (R)-2-aminoheptane, 2 mM PLP, 100 mM triethanolamine
From the text: as §1

MwoAT (Mycolicibacterium wolinskyi; L175A)
Km [1]: 54.25 ± 2.42 mM | kcat [1]: 5.677 ± 0.0542 s⁻¹ | kcat/Km [1]: 105 ± 5.67 M⁻¹ s⁻¹

MwoAT (Mycolicibacterium wolinskyi; L175G)
Km [1]: 42.87 ± 0.43 mM | kcat [1]: 5.32 ± 0.026 s⁻¹ | kcat/Km [1]: 124 ± 2.5 M⁻¹ s⁻¹

B1: MwoAT (Mycolicibacterium wolinskyi) (protein)
chain: MQYSDYELDTTSPFAGGVAWIEGEYLPASEAKISIFDTGFGHSDLTYTVAHVWHGNIFRLGDHLDRLLDGARKLRLDPGMSKDELAEITKKCVSLSQLRESFVNLTVTRGYGKRKGEKDLSKLTHQVYIYAIPYLWAFPPSEQIFGTTAIVPRHVRRAGRNTVDPTIKNYQWGDLTAASFEAKDRGARTAILMDADNCVAEGPGFNVVIVKDGKLASPSRNALPGITRKTVFEIADAMGIEAELRDVTSHELYDADELMAVTTAGGVTPINSLDGEPIGDGAPGPLTVAIRDRFWALMDEPSALIEAIQY
notes: N-terminal 6xHis tag, pET-15b, codon-optimised synthetic gene, E. coli BL21(DE3), Ni-NTA purified; about 48 kDa; PLP-dependent fold type IV
Km [2]: 68.03 ± 1.68 mM | kcat [2]: 3.9358 ± 0.0035 s⁻¹ | kcat/Km [2]: 57.8 ± 1.5 M⁻¹ s⁻¹
